± gives the standard deviation of the averaged measurements.
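Note: ATP exposure 15 min at 22 °C before imaging.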

This data set relates to ATP. Put plainly: switch fluorescence ratio, 500 uM ATP over buffer (Cy3 cluster intensity, sum of 5 cycles each) (fold (ratio)); higher = stronger signal-on switching upon ATP binding; sequences stand for … in TCGTCGGCAGCGTCAGATGTGTATAAGAGACAGTTTTTTTTTTTTTTTTTTTTTTTTT…TC. The following applies: aptamer strand: ATP DNA aptamer (quencher-CACCTGGGGGAGTATTGCGGAGGAAGG + anchor), 100 nM annealed; ATP concentration: 500 uM. The method, boiled down:
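Clusters carrying Cy3-labelled switching strands on a modified Illumina MiSeq flow-cell were annealed to 100 nM quencher-labelled ATP aptamer and imaged in selection buffer. They were imaged again after 15 min with 500 uM ATP at 22 °C, over five buffer/ATP cycles with NaOH stripping and re-annealing in between. For each cluster, the fluorescence ratio is the summed Cy3 intensity of the target cycles divided by that of the buffer cycles, averaged per switch-domain sequence. Clusters outside 100-1000 RFU were left out.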
Turning to TATAAGAGCG, the switch fluorescence ratio came out at 1.004 ± 0.0065.
Regarding GTAGGTATGG, the switch fluorescence ratio stood at 0.969 ± 0.015.
For TGGGGGGGA the value was 1.03 ± 0.031; for AGCCGGGTAT, 1.01 ± 0.016.
On to TTGACGAGTT, for which the switch fluorescence ratio came to 1.06 ± 0.081.
Take AGGAAATAGT: the switch fluorescence ratio was 1.05 ± 0.059.
As for TTCTGATCAG, the switch fluorescence ratio was determined as 1.01 ± 0.011.
For GAGGCTAGTT the value was 0.9936 ± 0.0047; for TTTCTTGGTA, 1.02 ± 0.024; for GTGATATAAG, 0.986 ± 0.031.
For AGTGTGAAGG the value was 1.003 ± 0.0099; for CTGGGCTTAG, 0.982 ± 0.037.
For ATAACCGTGG the value was 1.05 ± 0.074; for GTGGGGGGAA, 0.98 ± 0.018.
Turning to TAATTTGTGG, the switch fluorescence ratio was found to be 0.995 ± 0.023.
Regarding TATAATGCGC, the switch fluorescence ratio is 0.995 ± 0.034.
To TACCCGGACA belongs 1.091 ± 0.0053; to TGGGGAAACG, 0.9455 ± 0.0068.
For CCCGGCATCT the value was 1.2197 ± 0.00016; for CCTGGTCCTA, 0.9879 ± 0.0074; for GGATTAATCG, 1 ± 0.015.
As to GCGTTTTACT, the switch fluorescence ratio was 1.034 ± 0.0051.
Consider TGGCCGGCTT, for which the switch fluorescence ratio was found to be 1.044 ± 0.0066.
For TTGGGTTATG the value was 1 ± 0.013; for ATTCGAATCG, 1.05 ± 0.12.
For TGAATTTTTT the value was 0.993 ± 0.028; for ATGTACGAGA, 1.06 ± 0.019; for TATTGTGGCT, 0.9785 ± 0.0061.
To CCGTTATGCA belongs 1.26 ± 0.018; to ACTGCAGAAC, 1.9 ± 0.34; to CCGGGGGCTC, 1.87 ± 0.97.
In the case of TAGGTTTGCC, the switch fluorescence ratio was 1.08 ± 0.021.
To CGGTGAGTGG belongs 1.01 ± 0.02; to CGAGTTCGGC, 0.976 ± 0.06.
For TTTTTTTGTG the value was 0.984 ± 0.019.
To TACCTTGAGC belongs 0.9999 ± 0.0034; to CAGGAAGCTG, 1.04 ± 0.11; to GTTCTATATT, 0.986 ± 0.062.
As to TGGTCCCTTG, the switch fluorescence ratio amounted to 1.12 ± 0.16.
To GCGATTTAGA belongs 0.994 ± 0.016; to TTACGGCTGC, 1.03 ± 0.058; to ATACTGTTAC, 1.359 ± 0.0057.
For the sequence GGGCTTTCTC, the switch fluorescence ratio worked out at 1.09 ± 0.055.
Regarding TCAGTCAGCT, the switch fluorescence ratio was 1 ± 0.039.
Regarding TATGGGTTTT, the switch fluorescence ratio amounted to 1.02 ± 0.037.
To CAGTTGGTTT belongs 0.97 ± 0.02; to GTGGGGCGCA, 1.01 ± 0.026; to AACTGATTTC, 0.963 ± 0.03.
Turning to GCATCGTGCG, the switch fluorescence ratio worked out at 1.01 ± 0.052.
To ACAGTCAGAT belongs 1.057 ± 0.0067; to TCTGGCCGGC, 0.986 ± 0.028; to GGAGAGAAAG, 0.9866 ± 0.0024.
For the sequence AGTTTGGTCA, the switch fluorescence ratio came out at 0.98 ± 0.021.
For AATTAATCCA the value was 0.997 ± 0.017.
For TTCGTGGGGG the value was 0.991 ± 0.015; for ATTAAATTTC, 0.987 ± 0.014.
In the case of TGTGGGAAAT, the switch fluorescence ratio stood at 0.988 ± 0.016.
For TTTGTCAAAA, the switch fluorescence ratio was 1 ± 0.025.
For the sequence ATCAATGAAG, the switch fluorescence ratio came to 0.975 ± 0.023.
To TGATCTAGGC belongs 0.98 ± 0.074; to CTAGCCAATT, 1.02 ± 0.016; to CTGACTCGGT, 1.12 ± 0.013.
As to AGGGTGTGCC, the switch fluorescence ratio was found to be 1.01 ± 0.018.
In the case of CGATATTTGG, the switch fluorescence ratio stood at 1 ± 0.02.
Take GGTCAAACCA: the switch fluorescence ratio was found to be 1.03 ± 0.0097.
As to TCATGCCGGG, the switch fluorescence ratio stood at 1.04 ± 0.014.
For GTCGTATGAG the value was 1.01 ± 0.028; for TGCGGATATA, 1.04 ± 0.043; for TTTATTGTGC, 1.03 ± 0.054.
Take TATGGATGGC: the switch fluorescence ratio is 1.01 ± 0.058.
AAGTGTCGTG: the switch fluorescence ratio amounted to 0.959 ± 0.024.
To GGTGGGATTC belongs 1.01 ± 0.014; to ATGAGGTTTG, 1.01 ± 0.019; to GGGAGCTCTG, 1 ± 0.014.
For ACAGTATGGC, the switch fluorescence ratio was determined as 0.952 ± 0.041.
Consider TAATCAATGT, for which the switch fluorescence ratio worked out at 0.994 ± 0.011.
For GAAGGAAAGA, the switch fluorescence ratio amounted to 1.02 ± 0.037.
As for GCCCGTATGC, the switch fluorescence ratio turned out to be 1.07 ± 0.011.
On to ATGAGGGCAG, for which the switch fluorescence ratio was 0.993 ± 0.018.
For TCGGGGATAT the value was 3.05 ± 2.9; for TTTTTGGGCT, 0.996 ± 0.028.
For GGAACCTTTT, the switch fluorescence ratio turned out to be 1.04 ± 0.041.
In the case of CAATAATTTA, the switch fluorescence ratio is 1.004 ± 0.0086.
To GGGGGGGAAA belongs 0.99 ± 0.035; to ATCAGTGCGA, 1.036 ± 0.0081; to GTTTTTACTG, 1.05 ± 0.081.
For TGCCGGGAAA the value was 1.01 ± 0.0084; for CTATATGAAG, 0.9802 ± 0.0067; for TCAGGGGTGG, 1 ± 0.058.
For AGCCCTAAGG, the switch fluorescence ratio turned out to be 0.979 ± 0.045.
To CTATCCTCTT belongs 0.972 ± 0.01; to ATCACGTCTA, 1.024 ± 0.003.
Turning to CTCGATGGGA, the switch fluorescence ratio was found to be 0.974 ± 0.061.
To GATCCCCCCC belongs 1.06 ± 0.03; to AAGGTTTAGT, 1 ± 0.024; to TTACTCGGGC, 0.999 ± 0.019.
Regarding CCTTGCGGGA, the switch fluorescence ratio was 1.06 ± 0.011.
To CATTTATAAG belongs 0.977 ± 0.013; to AGGTACGTGG, 0.996 ± 0.059.
As to CACAAGGTAT, the switch fluorescence ratio was determined as 1.03 ± 0.033.
For CGGTTGCCCG the value was 0.979 ± 0.12; for GGCCTAATAG, 1 ± 0.034.
For ACGCGGTTTT, the switch fluorescence ratio is 1.02 ± 0.027.
In the case of AATGCCTCAG, the switch fluorescence ratio worked out at 1 ± 0.024.
Take TTCGAGAGGG: the switch fluorescence ratio worked out at 0.981 ± 0.028.
To GGCGAGGGCT belongs 0.982 ± 0.051; to TTTGCATGCT, 1.024 ± 0.0036; to TGGTTTGGAG, 0.984 ± 0.057.
For GGGTAAGATC the value was 1.022 ± 0.0083; for TCAACTGGTG, 1.35 ± 0.16; for GCTGGAGTAT, 0.987 ± 0.026.
For GGGGGAGACT the value was 1 ± 0.051; for CAGTTATCGT, 0.986 ± 0.016.
Consider GTCTAAGGGA, for which the switch fluorescence ratio was determined as 0.968 ± 0.024.
As to ATTTGTTTAC, the switch fluorescence ratio is 1.011 ± 0.0065.
Regarding GATCGAGGGA, the switch fluorescence ratio is 1.04 ± 0.14.
For TTCTGGGGTA, the switch fluorescence ratio stood at 0.988 ± 0.033.
Take ACATGATGGC: the switch fluorescence ratio is 1.05 ± 0.018.
For the sequence TCAGAGGGCA, the switch fluorescence ratio was determined as 1 ± 0.053.
For TCACTCGAAG the value was 1.01 ± 0.0067.

For the origin of these results see the supplement of paper PMC10126150.
